Experimental data as given in patent US6893870 (Human Genome Sciences, dated 2005).

Target: tissue plasminogen activator (UniProt P00750 36-562, limits assumed)
Experiment: cell-based or functional assay

tissue plasminogen activator, sequence (P00750 36-562 limits assumed): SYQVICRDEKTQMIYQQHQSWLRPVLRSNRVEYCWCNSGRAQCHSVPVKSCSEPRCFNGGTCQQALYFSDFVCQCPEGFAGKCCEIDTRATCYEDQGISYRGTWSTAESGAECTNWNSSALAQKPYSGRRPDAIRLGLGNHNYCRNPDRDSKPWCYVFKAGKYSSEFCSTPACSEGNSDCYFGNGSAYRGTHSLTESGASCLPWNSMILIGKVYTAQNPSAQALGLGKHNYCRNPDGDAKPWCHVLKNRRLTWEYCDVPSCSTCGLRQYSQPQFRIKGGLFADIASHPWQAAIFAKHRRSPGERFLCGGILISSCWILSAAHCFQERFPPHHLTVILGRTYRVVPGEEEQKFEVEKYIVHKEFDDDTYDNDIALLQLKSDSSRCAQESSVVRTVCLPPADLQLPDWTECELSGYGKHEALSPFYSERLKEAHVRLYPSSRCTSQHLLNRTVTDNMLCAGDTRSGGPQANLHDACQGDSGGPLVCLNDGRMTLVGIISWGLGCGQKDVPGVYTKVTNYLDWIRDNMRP

B1: pancreas-derived plasminogen activator inhibitor (PAPAI) protein (other)
chain: SRCSAQKNTEFAVDLYQEVSLSHKDNIIFSPLGITLVLEMVQLGAKGKAQQQIRQTLKQQETSAGEEFLVLKSFCSAISEKKQEFTFNLANALYLQEGFTVKEQYLHGNKEFFQSAIKLVDFQDAKACAEMISTWVERKTDGKIKDMFSGEEFGPLTRLVLVNAIYFKGDWKQKFRKEDTQLINFTKKNGSTVKIPMMKALLRTKYGYFSESSLNYQVLELSYKGDEFSLIIILPAEGMDIEEVEKLITAQQILKWLSEMQEEEVEISLPRFKVEQKVDFKDVLYSLNITEIFSGGCDLSGITDSSEVYVSQVTQKVFFEINEDGSEAATSTGIHIPVIMSLAQSQFIANHPFLFIMKHNPTESILFMGRVTNPDTQEIKGRDLDSL
Question: With B1 as the binder, how does the “anti-tPA activity (plasminogen activator inhibitory activity) of concentrated conditioned media” value read?
Answer: 3 fold over PAPAI negative clones
